Measurements reported in the DeepSol protein solubility set.

assay: soluble on expression in E. coli; label from the status in PepcDB or PDB records

Question: Which “soluble on expression in E. coli” value does the source give for “MDKLGENLNKALNKLKAAAFVDKKLIKEVIKDIQRALIQADVNVKLVLKMSKEIERRALEEKTPKGLSKKEHIIKIVYEELVKLLGEEAKKLELNPKKQNVILLVGIQGSGKTTTAAKLARYIQKRGLKPALIAADTYRPAAYEQLKQLAEKIHVPIYGDETRTKSPVDIVKEGMEKFKKADVLIIDTAGRHKEEKGLLEEMKQIKEITNPDEIILVIDGTIGQQAGIQAKAFKEAVGEIGSIIVTKLDGSAKGGGALSAVAETKAPIKFIGIGEGIDDLEPFDPKKFISRLLGMGDLESLLEKAEDMVDEKTEESIDAIMRGKFTLNELMTQLEAIENMGSMKKILSMIPGFGGAMPKELSHLTEAKIKKYKVIISSMTKEERENPKIIKASRIRRIARGSGTTENDVREVLRYYETTKNAIDKLHHHHHH” here?
Answer: soluble

Question: For “MDLALFDLDETLISDDSTGLWIRWLVNEGLAPFELSEQEQTLMTQYYQGQLSMAGYMAATLSPLVGKHTAEVAGWVEHFIAHDILPRIYPQALEKLAWHRDRGDYIVIISASGEHLVTPIAKHFAADTALSIGVTVENDRYTGQTYGTLTYQKGKVDRLNQWLSASPQLNFKRSYGYSDSINDQPLLEYVDHAAVINPGAELIDLAVLHQWDIHHW”, which “soluble on expression in E. coli” value is on record?
Answer: not soluble

Question: With “MDLFCLGRDLQTRPQSKEALSAIILAPMEWDLSDLYSGPQDPRILQDLEAALALAQGLDPQGLLDPKGAQDLLERYEKALELAYKPLNYASLYFATRTQDPEAKALLDRVRSRFTEVRNRLVPLEVALRKLPEEAFQRLLAHPGLADLGHFLKRQRAYAPHTLSEREEELLNLKALVGRSAWSQFYTEYTGRFRFRVGERELTEMEVRALRRDPDPEVRREAHRALYGKLLAEAPTLSAVFNAVYLDYLQDLRLRGYRHPLEPVALRDEVEVREIEALLEATKAHYPLVERYYRWKAGRLGREKTPSEDLLAPLGEKPKVPFAEARALVLEAFRRFSPELAEIAREFFEKRWIDVYPRPGKRGGAFCSGGLPSTHPYILLNHTDDLDSAHTLAHELGHGVHFYLARKQRLLNFGASTPLAETASVFAEILLDDLLLERLSGEEKTLLLAERVEDAINTLFRQVMYTFFEQRSLEARKEAALSPEAFHALWDEEQRRLYGEAVAWTELDRAAWAGIPHFVHYRFYTYSYALGYLVVLALYGKYREEGEAFVPKYLRILEAGESASPKEILAEAGVELGSEAFFRYGFGVLESWLKALP” as the sequence, how does the “soluble on expression in E. coli” value read?
Answer: soluble

Question: With “MDLHELTARLHAIRDRNDWRQFHSPKNLAMAASVEMAELVEIFQWLTEDQSRTLSAEQLEHAGQEVGDIVLYLLLFCGETGLDLEQVVRAKLADCERRFLP” as the sequence, how does the “soluble on expression in E. coli” value read?
Answer: soluble

Question: Which “soluble on expression in E. coli” value does the source give for “MDLNATNYIRGCQSKTYDGKIFPGKGGEKQWICKDTIIHGDTNGACIPPRTQNLCVGELWDKSYGGRSNIKNDTKELLKEKIKNAIHKETELLYEYHDTGTAIISKNDKKGQKGKNDPNGLPKGFCHAVQRSFIDYKNMILGTSVNIYEHIGKLQEDIKKIIEKGTPQQKDKIGGVGSSTENVNAWWKGIEREMWDAVRCAITKINKKNNNSIFNGDECGVSPPTGNDEDQSVSWFKEWGEQFCIERLRYEQNIREACTINGKNEKKCINSKSGQGDKIQGACKRKCEKYKKYISEKKQEWDKQKTKYENKYVGKSASDLLKENYPECISANFDFIFNDNIEYKTYYPYGDYSSICSCEQVK” here?
Answer: soluble

Question: With “MDLPQKKKFTESERAALAKKLDDDLDQFMEEMAARKSDKKEERKPFDFDDWCKEIDQHPAFMTEMPTDGKYQDTIEALQSMKYDKEDDEDKQMNAEHHKEEGNKHFKFKKYRWATDCYSNGIKENSPDRKLNAVLYFNRAAAQKHLGNLRSAIKDCSMGRKFDPTHLKGVIRGAECLLELEYAKDALNWIESSKKIFAFTKETSDTPDLTDDEKKFIDQLETLRVKSVELSLKEERDKRKSRAEERKETESKKQLLDALKERNLNLCPRVPFDRPELMDMARLTVSLPLMHSHECVKFDDDLNLVWPILLQYPEAGQTDVLTETNELTTVGELLKEVLNSPAQWDPEHKFNFENVRFFVSDEYDEYLMEVYEWNDFKSVLSMPGYQIKQGLPVIMIMTKEKAASSLEALAEDENRYVAK” as the sequence, how does the “soluble on expression in E. coli” value read?
Answer: soluble

Question: With “MDLSAVRFDEKGLVPVVVQDARTGEVLTLAYANREALEETLRTRRSTFFSRSRQALWRKGETSGHTQEVVEVLLDCDGDAVVYRVLPQGPACHTGERTCFHRALLEGEKDLGFVVGQVYATIKERLRTLPEGSYVARMHQAGLDRILKKIGEEAGEVILAAKNQNPEELRHEAADLLFHLLLTLAELGLTPEDLAKTLWERHRPRSPYDGSHGN” as the sequence, how does the “soluble on expression in E. coli” value read?
Answer: soluble

Question: For “MDLTKLTFESVFGGSDVPMKPSRSEDNKTPRNRTDLEMFLKKTPLMVLEEAAKAVYQKTPTWGTVELPEGFEMTLILNEITVKGQATSKKAARQKAAVEYLRKVVEKGKHEIFFIPGTTKEEALSNIDQISDKAEELKRSTSDAVQDNDNDDSIPTSAEFPPGISPTENWVGKLQEKSQKSKLQAPIYEDSKNERTERFLVICTMCNQKTRGIRSKKKDAKNLAAWLMWKALEDGIESLESYDMVDVIENLEEAEHLLEIQDQASKIKDKHSALIDILSDKKRFSDYSMDFNVLSVSTMGIHQVLLEISFRRLVSPDPDDLEMGAEHTQTEEIMKATAEKEKLRKKNMPDSGPLVFAGHGSSAEEAKQCACKSAIIHFNTYDFTD”, which “soluble on expression in E. coli” value is on record?
Answer: not soluble

Question: With “MDLVFRPERYPFLTQDLPGVGGEIRVEPEDFQVEEVPAYLPKGEGEHLYLLLEKEGRTTREVLEFLRDEVGVPEKEIGVAGLKDKRAKTRQWFSIPRKYEDALCLLENLQGVRLLAADLHTNKLRTGHLKGNRFHILIRRPKGGVAEAEAVLKRLAEKGVPNYYGPQRFGLGGLNPVRGYKLVKEGKGRGSPWLKRFLIGSLQSLLFNDWVALRMALGLYDRVVPGDWAKKHATGGEFLVEDPGEAERALRLEISATGPLFGKKYPEAQGEARAIEDEVLARYGLKREEFRARRGARRPIRVPLAEWKVEEAPEGLWLSFFLPKGSYATSLLREVMKVEALDHLEAEPAPEDAEGL” as the sequence, how does the “soluble on expression in E. coli” value read?
Answer: soluble

Question: Which “soluble on expression in E. coli” value does the source give for “MDLWKLYQPGTPAAIVAWGQLGTAHAKTTYGLLRHSRLFKPVCVVAEHEGKMASDFVKPVRYDVPVVSSVEKAKEMGAEVLIIGVSNPGGYLEEQIATLVKKALSLGMDVISGLHFKISQQTEFLKIAHENGTRIIDIRIPPLELDVLRGGIYRKKIKVVGVFGTDCVVGKRTTAVQLWERALEKGIKAGFLATGQTGILIGADAGYVIDAVPADFVSGVVEKAVLKLEKTGKEIVFVEGQGALRHPAYGQVTLGLLYGSNPDVVFLVHDPSRDHFESFPEIPKKPDFEEERRLIETLSNAKVIGGVSLNGGFETDLPVYDPFNTDDLDEMLERAMVW” here?
Answer: not soluble

Question: With “MDMSLAEDAQETMATLAPDRFFFMSPYRSFTTSGCFARYTEPAVAGDSPDSPFQQKLRQQFAEAKSQGIANPILVGAIPFDTRQPSSLFIPMAWQSFSRQQKQRTARYFTDHQSLTVTARKAIPEQDAFEAMVARAAMLTATPDVDKVVLSRLIDITTDVAVDSGALLERLVAQNPVSYNFHVPLADGGVLLGASPELLLRKEGERFSSLPLAGSARRQPDDVLDREAGNRLLASQKDRHEHELVTQAMKQILRDRSTELQLPSSPQLITTPTLWHLGTPFEGKANAGENALTLACLLHPTPALSGFPHQVAKKLIAELEPFDRELFGGIVGWCDAEGNGEWVVTIRCAKLHGNQVRLFAGAGIVPASSPVGEWRETGVKLSTMLNVFGLH” as the sequence, how does the “soluble on expression in E. coli” value read?
Answer: soluble

Question: For “MDNDRDTVEFWSSLFQSFADSEPKDNPYPVVRSPIMTMSTPMAIDEPVEPWKVLEYGGKEVRPMAIDEPAEPWKALEYGGKDVRPMAIDVPAEPWKVGGKEAQPANAAAEAGYKNVNTDQEKSTQKATEKVIM”, which “soluble on expression in E. coli” value is on record?
Answer: soluble

Question: Which “soluble on expression in E. coli” value does the source give for “MDNKIVYVVSDSVGETADLVVRAAMGQFPFAPDIRRVPYVEDTGTLKEVISIAKSNQALICFTLVKPDMRQYLVTEAAKEGVEAYDIIGPLIDQIEEITGQVPRYEPGVVRRLDEEYFKKIEAIEFAVKYDDGRDARGILKADIVLIGVSRTSKTPLSQYLAHNKRLKVANVPLVPEVDPPEELYQVAKEKCFGLKITPDKLNHIRKERLKSLGLSDGATYANINRIQEEIDHFEEVISRINCQVIDVSNKAIEETANIIVNAVQNQKMF” here?
Answer: not soluble

Question: Which “soluble on expression in E. coli” value does the source give for “MDNNEKEKSKSELLVVTGLSGAGKSLVIQCLEDMGYFCVDNLPPVLLPKFVELMEQGNPSLRKVAIAIDLRGKELFNSLVAVVDKVKSESDVIIDVMFLEASTEKLISRYKETRRAHPLMEQGKRSLINAINDEREHLSQIRSIANFVIDTTKLSPKELKERIRRYYEDEEFETFTINVTSFGFKHGIQMDADLVFDVRFLPNPYYVVDLRPLTGLDKDVYNYVMKWKETEIFFEKLTDLLDFMIPGYKKEGKSQLVIAIGCTGGQHRSVALAERLGNYLNEVFEYNVYVHHRDAHIESGEKK” here?
Answer: not soluble

Question: For “MDNYQEITRYLDNAREILSTKANKEGQFYKDIKYVQMASGTAYNAALMIADEYLRKKEGAKFTKPNSIDEYRVRLNKHNKTLLAYLNRAYDMLHLAGYYHGTPSVGTIKQGMEAAQKMLALIEH”, which “soluble on expression in E. coli” value is on record?
Answer: soluble

Question: For “MDPKAEGNGENITETAAGNVETSDFVNLKRQKREGVNSTGMSEIDMTGSQETPEHNMHGSPTHTDDLGPRLDADMLDSQSSHVSSSAQGNRSEVENELSNLFAKMALPGHDRRTDEYILVRQTGQDKFAGTTKCNLDHLPTKAEFNASCRLYRDGVGNYYPPPLAFERIDLPEQLAAQLHNLEPREQSKQCFQYKLEVWNRAHAEMGITGTDIFYQTDKNIKLDRNYKLRPEDRYIQTEKYGRREIQKRYEHQFQAGSLLPDILIKTPQNDIHFSYRFAGDAYANKRFEEFERAIKTKYGSDTEIKLKSKSGIMHDSKYLESWERGSADIRFAEFAGENRAHNKQFPAATVNMGRQPDGQGGMTRDRHVSVDYLLQNLPNSPWTQALKEGKLWDRVQVLARDGNRYMSPSRLEYSDPEHFTQLMDQVGLPVSMGRQSHANSVKFEQFDRQAAVIVADGPNLREVPDLSPEKLQQLSQKDVLIADRNEKGQRTGTYTNVVEYERLMMKLPSDAAQLLAEPSDRYSRAFVRPEPALPPISDSRRTYESRPRGPTVNSL”, which “soluble on expression in E. coli” value is on record?
Answer: soluble

Question: Which “soluble on expression in E. coli” value does the source give for “MDQAQRFLRQHPEHADLRIWGLNAFDPSQGNLLLPRLEWRRCGGKATLRLTLFSESSLQHDAIQAKEFIATLVSIKPLPGLHLTTTREQHWPDKTGWTQLIELATKTIAEGELDKVVLARATDLHFASPVNAAAMMAASRRLNLNCYHFYMAFDGENAFLGSSPERLWRRRDKALRTEALAGTVANHPDDKQAQQLGEWLMADDKNQRENMLVVEDICQRLQADTQTLDVLPPQVLRLRKVQHLRRCIWTSLNKADDVICLHQLQPTAAVAGLPRDLARQFIARHEPFTREWYAGSAGYLSLQQSEFCVSLRSAKISGNVVRLYAGAGIVRGSDPEQEWQEIDNKAAGLRTLLQME” here?
Answer: not soluble

Question: For “MDQKSTTCLEALAKLSQQREHQTTPATLCSSEHFFANETIYSDATFLSTTEEAFISSPSSSTQGPKPGLKRVSTGPMTRILEGCQNDKPNSPELERVEEAEDNYSGTSSEEAFSQGIPYPHQVGGHGALSSFERGRVLKPAAKKEIDFYNFIYSDNLPSELEWLRTVTPKYFGQRKTQAKAKRILENQVTPFSQTSSVPVNTVLHIDRKDSERNIWKDQVGELVMDTNPWARACLLKELQKEDEVKSFIILEDLTCHLKKPCVLDCKMGTRHYDDDATEEKKKAHIEKATKTTSSSTGIRFTGMQVYKLPSHTFLFHDKYYGRQLKSHELKNELFEFFHNGVLLRVDIIEQFLSKLQWLYQHLENQHYFNFYSSSLLFVYEGDEMATCPISDVRMIDFAHTQRCVEEQQNDGYLFGLSNLIHLMKSLLEDERNEMR”, which “soluble on expression in E. coli” value is on record?
Answer: soluble
